Values of other authors, collected in paper PMC8152036.

Experiments:
Assay in all cases: SPR
PfkA (Bacillus subtilis) = PfkA (Bacillus subtilis) (UniProt O34529)
[1] = target: RNase Y (Bacillus subtilis) (UniProt O31774)
[2] = target: RNase J1 (Bacillus subtilis) (UniProt Q45493)
Chain of UniProt Q45493 (Q45493 whole entry): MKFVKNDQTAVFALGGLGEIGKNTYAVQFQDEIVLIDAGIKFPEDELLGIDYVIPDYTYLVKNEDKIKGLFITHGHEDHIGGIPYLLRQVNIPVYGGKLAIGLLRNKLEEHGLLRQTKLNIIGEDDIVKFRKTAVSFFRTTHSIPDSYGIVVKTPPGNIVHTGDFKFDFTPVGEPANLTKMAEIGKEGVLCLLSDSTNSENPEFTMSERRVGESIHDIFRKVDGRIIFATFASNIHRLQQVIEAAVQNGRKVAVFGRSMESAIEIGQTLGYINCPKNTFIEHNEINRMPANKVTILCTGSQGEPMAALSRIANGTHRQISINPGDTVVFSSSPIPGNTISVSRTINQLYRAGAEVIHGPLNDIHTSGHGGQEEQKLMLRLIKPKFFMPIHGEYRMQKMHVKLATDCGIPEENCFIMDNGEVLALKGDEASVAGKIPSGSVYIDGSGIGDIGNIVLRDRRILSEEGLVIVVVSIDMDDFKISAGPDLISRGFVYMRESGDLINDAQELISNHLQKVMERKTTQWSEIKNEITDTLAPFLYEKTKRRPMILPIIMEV

Chain of UniProt O31774 (O31774 whole entry): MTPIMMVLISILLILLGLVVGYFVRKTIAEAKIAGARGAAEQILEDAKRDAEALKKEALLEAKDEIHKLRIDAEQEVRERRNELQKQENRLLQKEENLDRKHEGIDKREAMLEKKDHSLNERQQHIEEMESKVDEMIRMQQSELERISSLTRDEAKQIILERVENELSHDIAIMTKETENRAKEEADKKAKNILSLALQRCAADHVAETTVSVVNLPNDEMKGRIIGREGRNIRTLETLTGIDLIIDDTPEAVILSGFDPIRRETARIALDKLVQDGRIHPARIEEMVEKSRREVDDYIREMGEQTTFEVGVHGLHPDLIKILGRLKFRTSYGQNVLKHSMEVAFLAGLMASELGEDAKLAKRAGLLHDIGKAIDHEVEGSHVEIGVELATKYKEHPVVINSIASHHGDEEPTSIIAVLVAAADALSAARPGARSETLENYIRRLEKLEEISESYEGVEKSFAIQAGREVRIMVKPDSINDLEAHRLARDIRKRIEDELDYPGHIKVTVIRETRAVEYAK
Chain of UniProt O34529 (O34529 whole entry): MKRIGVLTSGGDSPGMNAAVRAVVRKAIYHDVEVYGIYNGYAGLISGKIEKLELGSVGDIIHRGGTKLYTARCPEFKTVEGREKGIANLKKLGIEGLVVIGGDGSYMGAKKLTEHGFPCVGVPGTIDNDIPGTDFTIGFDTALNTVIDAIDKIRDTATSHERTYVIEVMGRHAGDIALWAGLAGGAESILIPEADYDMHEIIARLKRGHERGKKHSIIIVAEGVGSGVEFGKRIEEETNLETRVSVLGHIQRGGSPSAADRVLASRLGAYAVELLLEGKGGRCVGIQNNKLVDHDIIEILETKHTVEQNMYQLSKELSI

| Kd (PfkA (Bacillus subtilis)) | Kd [1] | Kd [2] | Substance |
| --- | --- | --- | --- |
| 40 nM | 100 nM |  | Enolase (from UniProt P37869) |
|  | 5 nM | 250 nM | PNPase (from UniProt P50849) |
